Numbering of substitutions follows the chain as printed. Names may count otherwise. “Also recorded” adds a separate entry of the source.
B1: Therminator: 9° N exo−: A485L polymerase, commercial (protein, listed as Thermococcus gorgonarius)
chain: MILDTDYITEDGKPVIRIFKKENGEFKIDYDRNFEPYIYALLKDDSAIEDVKKITAERHGTTVRVVRAEKVKKKFLGRPIEVWKLYFTHPQDVPAIRDKIKEHPAVVDIYEYDIPFAKRYLIDKGLIPMEGDEELKMLAFDIETLYHEGEEFAEGPILMISYADEEGARVITWKNIDLPYVDVVSTEKEMIKRFLKVVKEKDPDVLITYNGDNFDFAYLKKRSEKLGVKFILGREGSEPKIQRMGDRFAVEVKGRIHFDLYPVIRRTINLPTYTLEAVYEAIFGQPKEKVYAEEIAQAWETGEGLERVARYSMEDAKVTYELGKEFFPMEAQLSRLVGQSLWDVSRSSTGNLVEWFLLRKAYERNELAPNKPDERELARRRESYAGGYVKEPERGLWENIVYLDFRSLYPSIIITHNVSPDTLNREGCEEYDVAPQVGHKFCKDFPGFIPSLLGDLLEERQKVKKKMKATIDPIEKKLLDYRQRLIKILANSFYGYYGYAKARWYCKECAESVTAWGRQYIETTIREIEEKFGFKVLYADTDGFFATIPGADAETVKKKAKEFLDYINAKLPGLLELEYEGFYKRGFFVTKKKYAVIDEEDKITTRGLEIVRRDWSEIAKETQARVLEAILKHGDVEEAVRIVKEVTEKLSKYEVPPEKLVIYEQITRDLKDYKATGPHVAVAKRLAARGIKIRPGTVISYIVLKGSGRIGDRAIPFDEFDPAKHKYDAEYYIENQVLPAVERILRAFGYRKEDLRYQKTRQVGLGAWLKPKT
B2: RT-521: Tgo V93Q, D141A, E143A, A485L, I521L, K726R, E429G; SEQ ID NO:12 (protein)
chain: B1 chain with V93Q, D141A, E143A, E429G, I521L, K726R
modifications: T. go derived RT-521 polymerase
B3: RT-521K: Tgo V93Q, D141A, E143A, A485L, I521L, E664K, K726R, A385V; SEQ ID NO:14 (protein)
chain: B1 chain with V93Q, D141A, E143A, A385V, E429G, F445L, I521L, E664K, K726R
modifications: T. go derived polymerase designated RT-521K
B4: D4K: Tgo polymerase with V93Q, D141A, E143A, L403P, A485L, P657T, E658Q, K659H, Y663H, E664K, D669A, K671N, T676I; SEQ ID NO:5 (protein)
chain: MILDTDYITEDGKPVIRIFKKENGEFKIDYDRNFEPYIYALLKDDSAIEDVKKITAERHGTTVRVVRAEKVKKKFLGRPIEVWKLYFTHPQDQPAIRDKIKEHPAVVDIYEYDIPFAKRYLIDKGLIPMEGDEELKMLAFAIATLYHEGEEFAEGPILMISYADEEGARVITWKNIDLPYVDVVSTEKEMIKRFLKVVKEKDPDVLITYNGDNFDFAYLKKRSEKLGVKFILGREGSEPKIQRMGDRFAVEVKGRIHFDLYPVIRRTINLPTYTLEAVYEAIFGQPKEKVYAEEIAQAWETGEGLERVARYSMEDAKVTYELGKEFFPMEAQLSRLVGQSLWDVSRSSTGNLVEWFLLRKAYERNELAPNKPDERELARRRESYAGGYVKEPERGLWENIVYPDFRSLYPSIIITHNVSPDTLNREGCEEYDVAPQVGHKFCKDFPGFIPSLLGDLLEERQKVKKKMKATIDPIEKKLLDYRQRLIKILANSFYGYYGYAKARWYCKECAESVTAWGRQYIETTIREIEEKFGFKVLYADTDGFFATIPGADAETVKKKAKEFLDYINAKLPGLLELEYEGFYKRGFFVTKKKYAVIDEEDKITTRGLEIVRRDWSEIAKETQARVLEAILKHGDVEEAVRIVKEVTEKLSKYEVPTQHLVIHKQITRALNDYKAIGPHVAVAKRLAARGIKIRPGTVISYIVLKGSGRIGDRAIPFDEFDPAKHKYDAEYYIENQVLPAVERILRAFGYRKEDLRYQKTRQVGLGAWLKPKT
modifications: Polymerase D4YK derived from T. gorgonarius
B5: D4: prior art TgoT-derived RNA polymerase with E664Q, SEQ ID NO:3 (protein)
chain: B4 chain with P403L, K664Q
modifications: Prior art T. gorgonarius (Tgo) derived polymerase D4 with mutated patch 10 region
B6: D4K521: D4K with the further mutation I521L, SEQ ID NO:7 (protein)
chain: B4 chain with I521L
modifications: Mutant polymerase D4YK with I521L mutation, derived from T. gorgonarius
B7: Dpo4: commercial DNA polymerase (protein, UniProt Q97W02 1-352, looked up)
DNA polymerase IV: MIVLFVDFDYFYAQVEEVLNPSLKGKPVVVCVFSGRFEDSGAVATANYEARKFGVKAGIPIVEAKKILPNAVYLPMRKEVYQQVSSRIMNLLREYSEKIEIASIDEAYLDISDKVRDYREAYNLGLEIKNKILEKEKITVTVGISKNKVFAKIAADMAKPNGIKVIDDEEVKRLIRELDIADVPGIGNITAEKLKKLGINKLVDTLSIEFDKLKGMIGEAKAKYLISLARDEYNEPIRTRVRKSIGRIVTMKRNSRNLEEIKPYLFRAIEESYYKLDKRIPKAIHVVAVTEDLDIVSRGRTFPHGISKETAYSESVKLLQKILEEDERKIRRIGVRFSKFIEAIGLDKFFDT

Columns and labels:
Ramos = test: IC50 of nucleoside drugs and TempN polymer on Ramos cells; assay type: cell-based; settings: Homo sapiens
Procedure: The polymer linked to the targeting protein was then mixed with Nanocargo transfection reagent according to the manufacturer's instructions (Tecrea, UK), and added to Ramos cells at a final concentration of 40 nM (polymer concentration). After 96 hours incubation in a humidified atmosphere at 37° C. (5% CO2), WST-1 reagent (Roche, UK) was added to the cells to measure cell growth inhibition (FIG. 42). […] Only when the toxic polymer is targeted to the Ramos cells via CD20 is cell growth inhibited.

CCRF-CEM = test: IC50 of nucleoside drugs and TempN polymer on CCRF-CEM cells; assay type: cell-based; settings: Homo sapiens
FANA template = test: FANA reverse transcriptase screen (PCR from cDNA); assay type: biochemical; settings: judged by PCR from the cDNA
Procedure: ANA and FANA were synthesised using D4YK from DNA primers against a biotinylated template. This was captured onto streptavidin-coated paramagnetic beads and the nascent ANA or FANA strand eluted using two washes in 30 mM NaOH. The single stranded products were neutralised, ethanol precipitated and used as a template to screen a panel of commercial polymerases as well as in-house engineered polymerases for RT activity.
We have learnt that RT-521 must be removed before PCR as even low concentrations of RT-521 inhibit PCR. In this case, the reverse transcription reactions were purified by Exol (NEB) treatment to remove unextended primers and 0.05 volumes (1 μl out of 20 μl reaction) were used as template for 20 μl PCR with FastStart Taq (Roche). If the reactions had been purified by a method which removed RT-521 (e.g. silica column or phenol:chloroform extraction) the PCR for the RT-521 reaction would have been expected to be positive, as observed in other experiments (FIG. 19).

[1] = tested on: arabinosyl-NTPs, DNA template; test: Polymerase dilution experiment, ANA synthesis, D4 vs D4K; assay type: biochemical
Procedure: In this experiment, the concentration of buffer (1× Thermopol (NEB) buffer), arabinosyl-NTPs (0.25 mM each), primer (200 nM), template (400 nM), the reaction volume ([…]) and extension conditions (1 min 94° C., 30 sec 50° C., 2 min 65° C.) were held constant.

[2] = tested on: arabinosyl-NTPs, DNA template; test: Polymerase dilution experiment, ANA synthesis, D4K vs D4K521; assay type: biochemical; settings: for polymerase concentration at which full-length (+57 nt) ANA product is present: 0.125 mM each arabinosyl-NTP, 1 min 94° C., 30 sec 50° C., 2 min 65° C.
Procedure: In this experiment, the concentration of buffer (1× Thermopol (NEB) buffer), arabinosyl-NTPs (0.125 mM each), primer (200 nM), template (400 nM), the reaction volume ([…]) and extension conditions (1 min 94° C., 30 sec 50° C., 2 min 65° C.) were held constant.

faNTP, DNA template = test: FANA synthesis by D4YK; assay type: biochemical
Procedure: (a) FANA synthesis at reduced faNTP concentrations. […] (b) Timecourse of YtRtemp8 (encoding 98 nt incorporations) synthesis by D4YK, showing substantial full-length synthesis in only 5 min. (c) Timecourse of ApLib5 (encoding 78 nt incorporations, of which 40 are random nucleotides) synthesis by D4YK, again showing substantial full length product in only 5 min.
Not only is FANA synthesis effective at relatively low FANA-NTP (faNTP) concentrations (less than 50 μM each, compared to 250 μM each for ANA synthesis) but synthesis of both a […] incorporation tRNA and an N40 library is efficient in less than 5 minutes (FIG. 15). This rapid synthesis and toleration of a wide range of substrate concentrations is indicative of an efficient polymerase, but neither single incorporation kinetics nor processivity have been investigated for D4YK.

Molecule | IC50 (Ramos) [nM] | IC50 (CCRF-CEM) [nM] | FANA RT activity (FANA template) | further results
Nc1nc(Cl)nc2c1ncn2[C@@H]1O[C@H](CO)[C@@H](O)[C@@H]1F [Clofarabine, 9-beta-D-fluoroarabinosyl-2′chloroadenosine] | 18 | 20 |  | 
Nc1ccn([C@@H]2O[C@H](CO)C(O)C2(F)F)c(=O)n1 (some centres unmarked) [GemC, 2′2′-difluorodeoxycytidine] | 1.6 | 11.7 |  | 
Nc1nc2c(ncn2[C@@H]2O[C@H](CO)C(O)C2O)c(=O)[nH]1 (stereo partly drawn) [AraG, 9-beta-D-arabinofuranosyl-guanosine] | ~100000 | 884 |  | 
Nc1nc(F)nc2c1ncn2[C@@H]1O[C@H](CO)[C@@H](O)[C@@H]1O [Fludarabine, 9-beta-D-arabinofuranosyl-2′fluoroadenosine] | 1300 | 864 |  | 
Nc1ccn([C@@H]2O[C@H](CO)C(O)C2O)c(=O)n1 (stereo partly drawn) [AraC, 9-beta-D-arabinofuranosyl-cytidine] | 22.7 | 12.9 |  | 
B1 |  |  | weak FANA RT activity | 
B2 |  |  | does have FANA RT activity; also recorded: effective FANA reverse transcriptase | 
B3 |  |  | robust FANA RT activity | 
B4 |  |  |  | polymerase concentration at which full-length (+57 nt) ANA product is present ([1]; 0.25 mM each arabinosyl-NTP, 1 min 94° C., 30 sec 50° C., 2 min 65° C.): 18.8 nM; polymerase concentration for full-length ANA product relative to D4 ([1]; fraction of the concentration required for D4): less than 1/15; polymerase concentration at which full-length (+57 nt) ANA product is present [2]: 18.8 nM; time for efficient FANA synthesis (faNTP, DNA template; 97 nt incorporation tRNA and N40 library): less than 5 minutes; time to substantial full-length FANA product (faNTP, DNA template; ApLib5 (78 nt incorporations, 40 random)): 5 min; time to substantial full-length FANA synthesis (faNTP, DNA template; YtRtemp8 (98 nt incorporations)): 5 min; faNTP concentration down to which FANA synthesis remains robust (faNTP, DNA template; YtRtemp9 (93 nt incorporations), each faNTP): ≥ 31.2 µM; FANA-NTP concentration at which FANA synthesis is effective (faNTP, DNA template; each faNTP, compared to 250 μM each for ANA synthesis): less than 50 μM
B5 |  |  |  | full-length (+57 nt) ANA product at 75 nM polymerase ([1]; 75 nM polymerase, 0.25 mM each arabinosyl-NTP): no full-length product; full-length (+57 nt) ANA product at 300 nM polymerase ([1]; 300 nM polymerase, 0.25 mM each arabinosyl-NTP): very little full-length
B6 |  |  |  | polymerase concentration at which full-length (+57 nt) ANA product is present [2]: 2.3 nM; polymerase concentration for full-length ANA product relative to D4K ([2]; fraction of the concentration required for D4K): less than 1/8
B7 |  |  | weak RT activity | 

From patent publication US9914914B2, “Polymerase capable of producing non-DNA nucleotide polymers” (Medical Research Council, priority 2012, dated 2018)
